Measurements from US20250145690A1 (US Dept. of Health and Human Services, published 2025).

How the values were obtained:
Assay in all cases: bead flow cytometry, AUC minus CD4
[1] = biological target: T1, HCoV-NL63 spike protein (Sino Biological 40604-V08B) (HCoV-NL63, UniProt Q6Q1S2 19-1296)
T1 sequence: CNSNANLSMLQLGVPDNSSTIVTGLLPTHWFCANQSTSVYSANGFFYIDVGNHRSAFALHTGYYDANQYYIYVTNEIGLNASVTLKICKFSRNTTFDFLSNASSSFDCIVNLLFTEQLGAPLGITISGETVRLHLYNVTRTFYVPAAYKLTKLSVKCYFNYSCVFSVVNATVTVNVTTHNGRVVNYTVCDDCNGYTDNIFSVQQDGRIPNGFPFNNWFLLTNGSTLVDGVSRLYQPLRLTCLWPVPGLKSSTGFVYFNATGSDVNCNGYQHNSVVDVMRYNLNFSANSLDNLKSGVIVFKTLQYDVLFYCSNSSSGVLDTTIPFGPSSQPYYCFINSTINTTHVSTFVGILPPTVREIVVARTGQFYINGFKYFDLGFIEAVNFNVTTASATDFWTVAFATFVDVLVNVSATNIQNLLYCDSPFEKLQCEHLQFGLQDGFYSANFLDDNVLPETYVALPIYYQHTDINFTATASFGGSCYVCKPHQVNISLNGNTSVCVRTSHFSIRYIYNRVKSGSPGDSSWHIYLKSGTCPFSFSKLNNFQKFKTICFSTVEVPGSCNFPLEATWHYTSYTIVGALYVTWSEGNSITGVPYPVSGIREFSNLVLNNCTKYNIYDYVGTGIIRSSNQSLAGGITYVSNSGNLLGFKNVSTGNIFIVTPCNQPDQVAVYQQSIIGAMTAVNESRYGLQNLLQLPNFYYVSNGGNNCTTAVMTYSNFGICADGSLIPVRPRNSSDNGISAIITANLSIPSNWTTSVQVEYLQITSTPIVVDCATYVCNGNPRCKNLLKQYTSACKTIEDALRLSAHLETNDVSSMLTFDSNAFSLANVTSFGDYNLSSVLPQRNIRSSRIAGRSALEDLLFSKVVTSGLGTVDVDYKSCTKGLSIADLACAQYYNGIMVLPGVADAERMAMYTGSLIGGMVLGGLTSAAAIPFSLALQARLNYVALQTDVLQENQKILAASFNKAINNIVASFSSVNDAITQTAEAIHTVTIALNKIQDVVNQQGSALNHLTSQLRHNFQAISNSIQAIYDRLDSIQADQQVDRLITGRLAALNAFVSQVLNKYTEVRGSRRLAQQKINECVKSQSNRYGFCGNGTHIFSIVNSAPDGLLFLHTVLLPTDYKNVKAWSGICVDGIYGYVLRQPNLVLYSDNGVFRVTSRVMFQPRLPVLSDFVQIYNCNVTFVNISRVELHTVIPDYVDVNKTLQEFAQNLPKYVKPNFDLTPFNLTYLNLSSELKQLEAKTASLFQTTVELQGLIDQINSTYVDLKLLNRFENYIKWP

[2] = biological target: T2, HCoV-HKU1 spike protein (Sino Biological 40606-V08B) (HCoV-HKU1, UniProt Q0ZME7 13-1295)
T2 sequence: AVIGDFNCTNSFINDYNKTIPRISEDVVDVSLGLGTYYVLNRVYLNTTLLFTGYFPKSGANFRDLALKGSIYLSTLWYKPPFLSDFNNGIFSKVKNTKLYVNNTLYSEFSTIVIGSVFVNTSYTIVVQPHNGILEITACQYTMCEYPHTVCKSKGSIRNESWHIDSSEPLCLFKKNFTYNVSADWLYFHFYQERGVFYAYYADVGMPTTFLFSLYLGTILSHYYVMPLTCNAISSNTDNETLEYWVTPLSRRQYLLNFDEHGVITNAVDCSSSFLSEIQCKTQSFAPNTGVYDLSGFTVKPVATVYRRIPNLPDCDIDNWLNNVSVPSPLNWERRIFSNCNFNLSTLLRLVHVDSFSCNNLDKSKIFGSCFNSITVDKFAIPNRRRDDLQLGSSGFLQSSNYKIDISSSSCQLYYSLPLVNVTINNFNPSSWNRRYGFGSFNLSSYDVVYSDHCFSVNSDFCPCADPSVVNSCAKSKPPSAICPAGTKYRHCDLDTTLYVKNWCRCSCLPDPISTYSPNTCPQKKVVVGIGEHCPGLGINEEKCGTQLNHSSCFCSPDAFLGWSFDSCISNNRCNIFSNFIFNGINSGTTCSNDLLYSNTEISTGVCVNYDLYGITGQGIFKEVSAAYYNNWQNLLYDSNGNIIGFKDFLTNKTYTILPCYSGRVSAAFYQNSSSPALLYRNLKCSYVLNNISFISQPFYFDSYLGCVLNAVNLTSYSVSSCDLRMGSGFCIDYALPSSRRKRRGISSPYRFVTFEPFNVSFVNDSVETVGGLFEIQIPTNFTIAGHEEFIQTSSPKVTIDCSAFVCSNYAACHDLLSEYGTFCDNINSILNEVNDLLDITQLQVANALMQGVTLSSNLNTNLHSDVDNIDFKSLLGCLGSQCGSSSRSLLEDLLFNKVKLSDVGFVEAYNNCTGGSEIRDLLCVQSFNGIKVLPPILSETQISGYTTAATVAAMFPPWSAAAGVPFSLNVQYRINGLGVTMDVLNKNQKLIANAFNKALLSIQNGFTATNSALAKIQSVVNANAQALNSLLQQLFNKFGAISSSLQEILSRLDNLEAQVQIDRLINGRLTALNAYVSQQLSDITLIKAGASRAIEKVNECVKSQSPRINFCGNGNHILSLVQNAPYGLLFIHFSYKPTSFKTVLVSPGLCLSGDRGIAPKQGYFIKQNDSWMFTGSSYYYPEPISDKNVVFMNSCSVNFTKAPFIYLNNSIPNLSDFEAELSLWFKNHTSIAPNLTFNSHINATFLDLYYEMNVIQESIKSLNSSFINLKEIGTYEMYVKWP

[3] = biological target: T3, HCoV-229E spike protein (Sino Biological 40605-V08B) (HCoV-229E, UniProt P15423 16-1115)
T3 sequence: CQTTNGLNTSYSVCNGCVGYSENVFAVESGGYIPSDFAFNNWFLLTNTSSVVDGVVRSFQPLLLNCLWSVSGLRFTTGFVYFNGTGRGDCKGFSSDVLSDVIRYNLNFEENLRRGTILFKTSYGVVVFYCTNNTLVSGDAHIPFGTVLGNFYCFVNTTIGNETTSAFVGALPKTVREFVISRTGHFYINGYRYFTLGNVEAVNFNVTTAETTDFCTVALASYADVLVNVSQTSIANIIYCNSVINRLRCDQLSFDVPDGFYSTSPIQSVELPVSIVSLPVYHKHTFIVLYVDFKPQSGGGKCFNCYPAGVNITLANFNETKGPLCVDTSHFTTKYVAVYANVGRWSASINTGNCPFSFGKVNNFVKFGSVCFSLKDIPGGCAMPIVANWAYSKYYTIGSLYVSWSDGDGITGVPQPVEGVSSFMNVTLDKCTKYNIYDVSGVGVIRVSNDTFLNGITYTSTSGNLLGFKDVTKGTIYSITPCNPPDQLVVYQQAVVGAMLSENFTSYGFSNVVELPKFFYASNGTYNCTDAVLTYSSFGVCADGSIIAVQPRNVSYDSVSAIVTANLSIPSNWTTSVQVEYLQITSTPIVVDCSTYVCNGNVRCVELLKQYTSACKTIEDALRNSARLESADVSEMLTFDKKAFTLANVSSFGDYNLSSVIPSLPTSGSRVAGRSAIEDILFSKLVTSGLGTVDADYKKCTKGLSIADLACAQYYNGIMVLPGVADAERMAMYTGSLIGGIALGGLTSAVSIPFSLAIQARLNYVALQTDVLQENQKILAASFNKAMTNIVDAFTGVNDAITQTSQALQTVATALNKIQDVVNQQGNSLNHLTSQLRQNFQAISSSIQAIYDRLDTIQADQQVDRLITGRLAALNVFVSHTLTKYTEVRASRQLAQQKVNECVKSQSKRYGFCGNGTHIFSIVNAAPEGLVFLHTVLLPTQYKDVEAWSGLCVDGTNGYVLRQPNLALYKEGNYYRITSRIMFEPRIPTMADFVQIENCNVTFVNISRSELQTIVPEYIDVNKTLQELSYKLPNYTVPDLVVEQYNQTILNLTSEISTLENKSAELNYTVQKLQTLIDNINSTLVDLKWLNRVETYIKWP

[4] = biological target: SARS-CoV-2 spike N-terminal domain (NTD), recombinant (SARS-CoV-2, UniProt P0DTC2 14-305)

Measured: binding result

B1: COV44-26 (antibody, V domains shown)
VH: QVQLVQSGAEVKKPGASVKVSCKASGYTFSNFYMNWVRQAPGQGLEWVGLISPSAGYTAYAQMFQGRVTMTRDTSTSTVYMELSSLRSEDTAVYYCARVAVAGPNDYWGQGTLVTVSS
VL: EIVLTQSPGTLSLSPGERATLSCRASQSISSSYLAWYQQKPGQAPRLVIFAASTRATGIPDRFSGSGSGTDFTLTITRLEPEDFALYYCQHYRSSPPLWTFGQGTKVEIR
no binding (tested: 200 µg/mL): [1] | [2] | [3] | [4]
